Measured values taken from PMC8131606.
Values belong to the substance of their own block, whether it stands above or below them.

What was measured:
[1] = target: F1 (F228A) opsin (bovine) (UniProt P02699)
[2] = target: F2 (F221A, F228A) opsin (bovine) (UniProt P02699)
[3] = target: F3 (F220C, F221A, F228A) opsin (bovine) (UniProt P02699)
[4] = target: WT opsin (thermostable bovine opsin with C-terminal 3X-FLAG tag) (bovine) (UniProt P02699)

ratio of mono-exponential fit constants α(construct)/αWT from scramblase-based analysis of reconstitution into vesicles [1]: 1
Substance: F1 (F228A) opsin (from UniProt P02699 1-348) (receptor)

ratio of mono-exponential fit constants α(construct)/αWT from scramblase-based analysis of reconstitution into vesicles [2]: 1
Substance: F2 (F221A, F228A) opsin (from UniProt P02699 1-348) (receptor)

ratio of mono-exponential fit constants αF3/αWT from scramblase-based analysis of reconstitution into vesicles [3]: 0.4
Substance: F3 (F220C, F221A, F228A) opsin (from UniProt P02699 1-348) (receptor)

mono-exponential fit constant (α) of p(≥ 1) scramblase versus PPR* after reconstitution of purified opsin into vesicles [4]: 0.25
Substance: WT opsin (thermostable bovine opsin with C-terminal 3X-FLAG tag) (from UniProt P02699 1-348) (receptor)
